In patent US20260049138A1 (Chugai, published 2026):
Numbering of substitutions follows the chain as printed. Names and notes keep the numbering of the source.

B1: CE115HA000 N53A one-arm antibody (antibody, human IgG1, kappa, L234A L235A, N297A, name in Kabat numbering)
heavy: QVQLVESGGGVVQPGRSLRLSCAASGFTFSNAWMHWVRQAPGKGLEWVAQIKAKSANYATYYAESVKGRFTISRDDSKNSLYLQMNSLKTEDTAVYYCRYVHYGAYYGVDAWGQGTTVTVSSASTKGPSVFPLAPSSKSTSGGTAALGCLVKDYFPEPVTVSWNSGALTSGVHTFPAVLQSSGLYSLSSVVTVPSSSLGTQTYICNVNHKPSNTKVDKKVEPKSCDKTHTCPPCPAPEAAGGPSVFLFPPKPKDTLMISRTPEVTCVVVDVSHEDPEVKFNWYVDGVEVHNAKTKPREEQYASTYRVVSVLTVLHQDWLNGKEYKCKVSNKALPAPIEKTISKAKGQPREPQVYTLPPSRCELTKNQVSLSCAVKGFYPSDIAVEWESNGQPENNYKTTPPVLDSDGSFFLVSKLTVDKSRWQQGNVFSCSVMHEALHNHYTQKSLSLSPDYKDDDDK
chain: EPKSSDKTHTCPPCPAPELLGGPSVFLFPPKPKDTLMISRTPEVTCVVVDVSHEDPEVKFNWYVDGVEVHNAKTKPREEQYNSTYRVVSVLTVLHQDWLNGKEYKCKVSNKALPAPIEKTISKAKGQPREPQVCTLPPSRDELTKNQVSLWCLVKGFYPSDIAVEWESNGQPENNYKTTPPVLDSDGSFFLYSKLTVDKSRWQQGNVFSCSVMHEALHNRYTQKSLSLSP
light: DIVMTQSPLSLPVTPGEPASISCRSSQSLVHSNRNTYLHWYQQKPGQAPRLLIYKVSNRFSGVPDRFSGSGSGTDFTLKISRVEAEDVGVYYCGQGTQVPYTFGQGTKLEIKRTVAAPSVFIFPPSDEQLKSGTASVVCLLNNFYPREAKVQWKVDNALQSGNSQESVTEQDSKDSTYSLSSTLTLSKADYEKHKVYACEVTHQGLSSPVTKSFNRGEC
B2: CE115HA000 N54D one-arm antibody (antibody, human IgG1, kappa, L234A L235A, N297A, name in Kabat numbering)
heavy: B1 heavy with A56N, N57D
chain: B1 chain
light: B1 light
B3: CE115HA000 N53K one-arm antibody (antibody, human IgG1, kappa, L234A L235A, N297A, name in Kabat numbering)
heavy: B1 heavy with A56K
chain: B1 chain
light: B1 light
B4: CE115HA000 Q50E one-arm antibody (antibody, human IgG1, kappa, L234A L235A, N297A, name in Kabat numbering)
heavy: B1 heavy with Q50E, A56N
chain: B1 chain
light: B1 light
B5: CE115HA000 R16Q one-arm antibody (antibody, human IgG1, kappa, L234A L235A, N297A, name in Kabat numbering)
heavy: B1 heavy with R16Q, A56N
chain: B1 chain
light: B1 light
B6: CE115HA000 Q105E one-arm antibody (antibody, human IgG1, kappa, L234A L235A, N297A, name in Kabat numbering)
heavy: B1 heavy with A56N, Q114E
chain: B1 chain
light: B1 light
B7: CE115HA000 N54K one-arm antibody (antibody, human IgG1, kappa, L234A L235A, N297A, name in Kabat numbering)
heavy: B1 heavy with A56N, N57K
chain: B1 chain
light: B1 light
B8: CE115HA000 N53Q one-arm antibody (antibody, human IgG1, kappa, L234A L235A, N297A, name in Kabat numbering)
heavy: B1 heavy with A56Q
chain: B1 chain
light: B1 light
B9: CE115HA000 N53I one-arm antibody (antibody, human IgG1, kappa, L234A L235A, N297A, name in Kabat numbering)
heavy: B1 heavy with A56I
chain: B1 chain
light: B1 light
B10: CE115HA000 N53D one-arm antibody (antibody, human IgG1, kappa, L234A L235A, N297A, name in Kabat numbering)
heavy: B1 heavy with A56D
chain: B1 chain
light: B1 light
B11: CE115HA000 N54G one-arm antibody (antibody, human IgG1, kappa, L234A L235A, N297A, name in Kabat numbering)
heavy: B1 heavy with A56N, N57G
chain: B1 chain
light: B1 light
B12: CE115HA000 N54Y one-arm antibody (antibody, human IgG1, kappa, L234A L235A, N297A, name in Kabat numbering)
heavy: B1 heavy with A56N, N57Y
chain: B1 chain
light: B1 light
B13: CE115HA000 N76S one-arm antibody (antibody, human IgG1, kappa, L234A L235A, N297A, name in Kabat numbering)
heavy: B1 heavy with A56N, N79S
chain: B1 chain
light: B1 light
B14: CE115HA000 N54F one-arm antibody (antibody, human IgG1, kappa, L234A L235A, N297A, name in Kabat numbering)
heavy: B1 heavy with A56N, N57F
chain: B1 chain
light: B1 light
B15: CE115HA000 N53H one-arm antibody (antibody, human IgG1, kappa, L234A L235A, N297A, name in Kabat numbering)
heavy: B1 heavy with A56H
chain: B1 chain
light: B1 light
B16: CE115HA000 R16E one-arm antibody (antibody, human IgG1, kappa, L234A L235A, N297A, name in Kabat numbering)
heavy: B1 heavy with R16E, A56N
chain: B1 chain
light: B1 light
B17: CE115HA000 N54A one-arm antibody (antibody, human IgG1, kappa, L234A L235A, N297A, name in Kabat numbering)
heavy: B1 heavy with A56N, N57A
chain: B1 chain
light: B1 light
B18: CE115HA000 N53G one-arm antibody (antibody, human IgG1, kappa, L234A L235A, N297A, name in Kabat numbering)
heavy: B1 heavy with A56G
chain: B1 chain
light: B1 light
B19: CE115HA000 Q50L one-arm antibody (antibody, human IgG1, kappa, L234A L235A, N297A, name in Kabat numbering)
heavy: B1 heavy with Q50L, A56N
chain: B1 chain
light: B1 light
B20: CE115HA000 Q50K one-arm antibody (antibody, human IgG1, kappa, L234A L235A, N297A, name in Kabat numbering)
heavy: B1 heavy with Q50K, A56N
chain: B1 chain
light: B1 light
B21: CE115HA000 N53Y one-arm antibody (antibody, human IgG1, kappa, L234A L235A, N297A, name in Kabat numbering)
heavy: B1 heavy with A56Y
chain: B1 chain
light: B1 light
B22: CE115HA000 Q50A one-arm antibody (antibody, human IgG1, kappa, L234A L235A, N297A, name in Kabat numbering)
heavy: B1 heavy with Q50A, A56N
chain: B1 chain
light: B1 light
B23: CE115HA000 N53S one-arm antibody (antibody, human IgG1, kappa, L234A L235A, N297A, name in Kabat numbering)
heavy: B1 heavy with A56S
chain: B1 chain
light: B1 light
B24: CE115HA000 N54Q one-arm antibody (antibody, human IgG1, kappa, L234A L235A, N297A, name in Kabat numbering)
heavy: B1 heavy with A56N, N57Q
chain: B1 chain
light: B1 light
B25: CE115HA000 N54L one-arm antibody (antibody, human IgG1, kappa, L234A L235A, N297A, name in Kabat numbering)
heavy: B1 heavy with A56N, N57L
chain: B1 chain
light: B1 light
B26: CE115HA000 Q50Y one-arm antibody (antibody, human IgG1, kappa, L234A L235A, N297A, name in Kabat numbering)
heavy: B1 heavy with Q50Y, A56N
chain: B1 chain
light: B1 light
B27: CE115HA000 N82aD one-arm antibody (antibody, human IgG1, kappa, L234A L235A, N297A, name in Kabat numbering)
heavy: B1 heavy with A56N, N86D
chain: B1 chain
light: B1 light
B28: CE115HA000 N54S one-arm antibody (antibody, human IgG1, kappa, L234A L235A, N297A, name in Kabat numbering)
heavy: B1 heavy with A56N, N57S
chain: B1 chain
light: B1 light
B29: CE115HA000 Q50S one-arm antibody (antibody, human IgG1, kappa, L234A L235A, N297A, name in Kabat numbering)
heavy: B1 heavy with Q50S, A56N
chain: B1 chain
light: B1 light
B30: CE115HA000 Q50I one-arm antibody (antibody, human IgG1, kappa, L234A L235A, N297A, name in Kabat numbering)
heavy: B1 heavy with Q50I, A56N
chain: B1 chain
light: B1 light
B31: CE115HA000 N53W one-arm antibody (antibody, human IgG1, kappa, L234A L235A, N297A, name in Kabat numbering)
heavy: B1 heavy with A56W
chain: B1 chain
light: B1 light
B32: CE115HA000 Q50D one-arm antibody (antibody, human IgG1, kappa, L234A L235A, N297A, name in Kabat numbering)
heavy: B1 heavy with Q50D, A56N
chain: B1 chain
light: B1 light

molecular target: T1, CD3ε homodimer protein (human, UniProt P07766 23-126, limits assumed, sulfo-tag or biotin label in the ECL assays; amine-coupled to the chip in SPR); test: SPR Biacore T200; CD3ε homodimer on CM4 chip;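 note: Single-residue variant antibodies injected as analyte over CD3ε homodimer immobilized by amine coupling, run at 25 °C in HBS-EP+ buffer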
T1 construct: also called human CD3ε homodimer protein; CD3 (CD3ε)
T1 sequence (P07766 23-126 limits assumed): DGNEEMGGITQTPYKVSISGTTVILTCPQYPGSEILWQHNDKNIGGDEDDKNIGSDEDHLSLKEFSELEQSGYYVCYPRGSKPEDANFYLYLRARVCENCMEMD

| ratio of amounts bound Z=Y/X (altered form / CE115HA000) | Binder |
| --- | --- |
| 0.7 | B1 |
| 0.62 | B2 |
| 0.78 | B3 |
| 0.26 | B4 |
| 0 | B5 |
| 0.94 | B6 |
| 1.2 | B7 |
| 1.1 | B8 |
| 0.68 | B9 |
| 0.39 | B10 |
| 0.98 | B11 |
| 1.03 | B12 |
| 0.92 | B13 |
| 1.12 | B14 |
| 0.76 | B15 |
| 0.88 | B16 |

| ratio of amounts bound Z=Y/X (altered form / CE115HA000) | Binder |
| --- | --- |
| 0.86 | B17 |
| 0.5 | B18 |
| 0.23 | B19 |
| 0.33 | B20 |
| 0.63 | B21 |
| 0.24 | B22 |
| 0.83 | B23 |
| 0.84 | B24 |
| 0.94 | B25 |
| 0.25 | B26 |
| 0.73 | B27 |
| 0.84 | B28 |
| 0.24 | B29 |
| 0.4 | B30 |
| 0.88 | B31 |
| 0.27 | B32 |
